Reference: patent publication US20030124664A1

Target: human growth hormone (hGH) with the N-terminal phenylalanine, expressed and secreted from plasmid phGH4R (human) (UniProt P01241)
Test: cell-based or functional assay

human growth hormone (hGH) with the N-terminal phenylalanine, expressed and secreted from plasmid phGH4R (human), sequence (P01241 27-217): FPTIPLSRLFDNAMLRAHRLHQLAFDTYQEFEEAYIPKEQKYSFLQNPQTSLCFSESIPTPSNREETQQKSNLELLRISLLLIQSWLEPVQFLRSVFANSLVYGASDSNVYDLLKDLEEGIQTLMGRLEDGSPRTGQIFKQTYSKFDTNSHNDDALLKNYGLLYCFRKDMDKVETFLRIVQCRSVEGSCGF

B1: native-sequence aminopeptidase b2324 (product of the E. coli chromosomal yfcK gene) (enzyme)
chain: MRSLTHIAKIEPPPVRRVTYVKHYSIQPANLEFNAEGTPVSRDFDDVYFSNDNGLEETRYVFLGGNQLEVRFPEHPHPLFVVAESGFGTGLNFLTLWQAFDQFREAHPQAQLQRLHFISFEKFPLTRADLALAHQHWPELAPWAEQLQAQWPMPLPGCHRLLLDEGRVTLDLWFGDINELTSQLDDSLNQKVDAWFLDGFAPAKNPDMWTQNLFNAMARLARPGGTLATFTSAGFVRRGLQDAGFTMQKRKGFGRKREMLCGVMEQTLPLPCSAPWFNRTGSSKREAAIIGGGIASALLSLALLRRGWQVTLYCADEAPALGASGNRQGALYPLLSKHDEALNRFFSNAFTFARRFYDQLPVKFDHDWCGVTQLGWDEKSQHKIAQMLSMDLPAELAVAVEANAVEQITGVATNCSGITYPQGGWLCPAELTRNVLELAQQQGLQIYYQYQLQNLSRKDDCWLLNFAGDQQATHSVVVLANGHQISRFSQTSTLPVYSVAGQVSHIPTTPELAELKQVLCYDGYLTPQNPANQHHCIGASYHRGSEDTAYSEDDQQQNRQRLIDCFPQAQWAKEVDVSDKEARCGVRCATRDHLPMVGNVPDYEATLVEYASLAEQKDEAVSAPVFDDLFMFAALGSRGLCSAPLCAEILAAQMSDEPIPMDASTLAALNPNRLWVRKLLKGKAVKAG
Question: What does the source list for B1?
Answer: Area % des-phe hGH, control strain lysate, 37° C., 0 h (LC-MS): 0.36 Area %; Area % des-phe hGH, control strain lysate, 37° C., 15 h (LC-MS): 46.8 Area %; Area % des-phe hGH, control strain lysate, 37° C., 24 h (LC-MS): 55.3 Area %; Area % des-phe hGH, control strain lysate, RT, 0 h (LC-MS): 0.36 Area %; Area % des-phe hGH, control strain lysate, RT, 15 h (LC-MS): 1.24 Area %; Area % des-phe hGH, control strain lysate, RT, 24 h (LC-MS): 2.15 Area %; Area % des-phe hGH, control strain lysate, RT, 42 h (LC-MS): 3 Area %
